Test results from patent US20150266977A1 (AbbVie / Abbott, published 2015).

T1: recombinant human sclerostin (human, UniProt Q9BQB4 24-213)
T1 construct: biotinylated in the ELISAs; also called hu sclerostin; hu scl
T1 sequence: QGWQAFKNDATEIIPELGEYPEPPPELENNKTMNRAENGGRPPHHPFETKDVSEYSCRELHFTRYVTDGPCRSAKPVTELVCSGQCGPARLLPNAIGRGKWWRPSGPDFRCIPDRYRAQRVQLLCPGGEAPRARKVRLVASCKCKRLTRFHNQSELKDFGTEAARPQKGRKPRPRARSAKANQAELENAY

T2: recombinant mouse sclerostin (mouse, UniProt Q99P68 24-211)
T2 construct: also called ms sclerostin; murine sclerostin
T2 sequence (looked up): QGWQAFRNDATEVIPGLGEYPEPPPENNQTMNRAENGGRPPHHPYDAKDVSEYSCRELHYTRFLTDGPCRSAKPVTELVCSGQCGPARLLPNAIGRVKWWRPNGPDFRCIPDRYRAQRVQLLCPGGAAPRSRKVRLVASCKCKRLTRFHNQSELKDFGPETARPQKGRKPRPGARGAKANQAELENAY

T3: recombinant rat sclerostin (rat, UniProt Q99P67 24-213, limits assumed)
T3 sequence (looked up): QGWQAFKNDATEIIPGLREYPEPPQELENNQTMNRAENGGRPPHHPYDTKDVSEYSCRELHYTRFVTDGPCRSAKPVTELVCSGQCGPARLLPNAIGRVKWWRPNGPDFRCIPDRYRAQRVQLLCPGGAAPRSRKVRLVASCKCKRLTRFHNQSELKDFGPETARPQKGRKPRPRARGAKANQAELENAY


Assays:
Experiment in all cases: SPR
[1] = target: T1, recombinant human sclerostin
Procedure: (§1) The binding of antibodies or anti-sclerostin-TNF DVD to purified recombinant human, cynomolgus monkey (cyno), rat and mouse sclerostin and TNFα was determined by surface plasmon resonance-based measurements with a Biacore T100 or T200 instruments (GE Healthcare Life Sciences, Piscataway, N.J., USA) using running HBS-EP+ (10 mM HEPES [pH 7.4], 150 mM NaCl, 3 mM EDTA, and 0.005% surfactant P20) containing additional 150 mM NaCl, and/or 10 mg/ml carboxymethyl dextran, 0.1 mg/ml BSA at 25° C. All chemicals were obtained from GE Healthcare Life Sciences, Piscataway, N.J., USA or otherwise from a different source as described in the text. Approximately 10,000 RU (or 3000 RU when CM3 chip was used) of goat anti-mouse or anti-human IgG (Fcγ) fragment specific polyclonal antibody (Pierce Biotechnology Inc, Rockford, Ill.) diluted in 10 mM sodium acetate (pH 4.5) was directly immobilized across a CM5 (or CM3) research grade biosensor chip using a standard amine coupling kit according to manufacturer's instructions and procedures at 15 μg/ml. Unreacted moieties on the biosensor surface were blocked with ethanolamine. Modified carboxymethyl dextran surface in flowcells 2, 3 and 4 were used as a reaction surface. Modified carboxymethyl dextran in flow cell 1 was used as the reference surface. Biaevaluation T100 software version 2.0.2, GE Healthcare Life Sciences was used to simultaneously fit association and dissociation phases of all injections (using 1:1 fit analysis with local Rmax). Purified antibodies were diluted in running buffer for capture across goat anti-mouse or anti-human IgG specific reaction surfaces. Antibodies to be captured as a ligand (1 μg/ml) were injected over reaction matrices at a flow rate of 10 μl/minute. The association and dissociation rate constants, kon (unit M-1 s-1) and koff (unit s-1) were determined under a continuous flow rate of 50 μl/minute. […] At the end of each cycle the surfaces were regenerated with 10 s injection of 50 mM NaOH or/and by 10 s injection of 10 mM Glycine pH1.5 at a flow rate of 100 μl/min.

[2] = target: T2, recombinant mouse sclerostin
Procedure: as §1

[3] = target: T3, recombinant rat sclerostin
Procedure: as §1

[4] = target: T4, recombinant cynomolgus monkey sclerostin (cynomolgus monkey)
T4 construct: also called cyno sclerostin; Cyno sclerostin
Procedure: as §1

| Kd [1] | koff [1] | kon [1] | Kd [2] | koff [2] | kon [2] | Kd [3] | koff [3] | kon [3] | Kd [4] | koff [4] | kon [4] | Binder |
| --- | --- | --- | --- | --- | --- | --- | --- | --- | --- | --- | --- | --- |
| < 1.5 pM | < 1e-06 s⁻¹ | 680000 M⁻¹ s⁻¹ | – | – | – | – | – | – | – | – | – | MAK195-21-SS-AE10-6 AM7 (bispecific antibody, human IgG1, lambda, L234A L235A, DVD-Ig: outer MAK195-21, inner AE10-6 AM7) heavy: not shown light: DIQMTQSPSSLSASVGDRVTITCRASQLVSSAVAWYQQKPGKAPKLLIYWASARHTGVPSRFSGSGSGTDFTLTISSLQPEDFATYYCQQHYKTPFTFGQGTKLEIKRTVAAPQAVVTQEPSLTVSPGGTVTLTCGSSTGTVTIDHYPYWFQQKPGQAPRTLISDTDDKHSWTPARFSGSLLGGKAALTLSGAQPEDEAEYYCLLDYGGRFVFGGGTKLTVLGQPKAAPSVTLFPPSSEELQANKATLVCLISDFYPGAVTVAWKADSSPVKAGVETTTPSKQSNNKYAASSYLSLTPEQWKSHRSYSCQVTHEGSTVEKTVAPTECS |
| 8.2 pM | 1.7e-05 s⁻¹ | 2.1e+06 M⁻¹ s⁻¹ | – | – | – | – | – | – | – | – | – | MAK195-21-GS-AE10-6 AM3 (bispecific antibody, human IgG1, lambda, L234A L235A, DVD-Ig: outer MAK195-21, inner AE10-6 AM3; heavy chain row is printed MAK195-1-GS-AE10-6 AM3; also called MAK195-1-GS-AE10-6 AM3) heavy: not shown light: DIQMTQSPSSLSASVGDRVTITCRASQLVSSAVAWYQQKPGKAPKLLIYWASARHTGVPSRFSGSGSGTDFTLTISSLQPEDFATYYCQQHYKTPFTFGQGTKLEIKGGSGGGGSGQAVVTQEPSLTVSPGGTVTLTCGSSTGAVTIDHYPYWFQQKPGQAPRTLISDTDDKHSWTPARFSGSLLGGKAALTLSGAQPEDEAEYYCLLDYGGTFVFGGGTKLTVLGQPKAAPSVTLFPPSSEELQANKATLVCLISDFYPGAVTVAWKADSSPVKAGVETTTPSKQSNNKYAASSYLSLTPEQWKSHRSYSCQVTHEGSTVEKTVAPTECS |
| 10 pM | 2e-05 s⁻¹ | 2e+06 M⁻¹ s⁻¹ | – | – | – | – | – | – | – | – | – | MAK195-21-GS-AE10-6 AM7 (bispecific antibody, human IgG1, lambda, L234A L235A, DVD-Ig: outer MAK195-21, inner AE10-6 AM7) heavy: not shown light: DIQMTQSPSSLSASVGDRVTITCRASQLVSSAVAWYQQKPGKAPKLLIYWASARHTGVPSRFSGSGSGTDFTLTISSLQPEDFATYYCQQHYKTPFTFGQGTKLEIKGGSGGGGSGQAVVTQEPSLTVSPGGTVTLTCGSSTGTVTIDHYPYWFQQKPGQAPRTLISDTDDKHSWTPARFSGSLLGGKAALTLSGAQPEDEAEYYCLLDYGGRFVFGGGTKLTVLGQPKAAPSVTLFPPSSEELQANKATLVCLISDFYPGAVTVAWKADSSPVKAGVETTTPSKQSNNKYAASSYLSLTPEQWKSHRSYSCQVTHEGSTVEKTVAPTECS |
| 3.6 pM | 7.9e-06 s⁻¹ | 2.2e+06 M⁻¹ s⁻¹ | – | – | – | – | – | – | – | – | – | MAK195-21-GS-AE10-6 AM8 (bispecific antibody, human IgG1, lambda, L234A L235A, DVD-Ig: outer MAK195-21, inner AE10-6 AM8) heavy: not shown light: DIQMTQSPSSLSASVGDRVTITCRASQLVSSAVAWYQQKPGKAPKLLIYWASARHTGVPSRFSGSGSGTDFTLTISSLQPEDFATYYCQQHYKTPFTFGQGTKLEIKGGSGGGGSGQAVVTQEPSLTVSPGGTVTLTCGSSTGAVTIDHYPYWFQQKPGQAPRTLISDTDDKHSWTPARFSGSLLGGKAALTLSGAQPEDEAEYYCLLDYGGSFVFGGGTKLTVLGQPKAAPSVTLFPPSSEELQANKATLVCLISDFYPGAVTVAWKADSSPVKAGVETTTPSKQSNNKYAASSYLSLTPEQWKSHRSYSCQVTHEGSTVEKTVAPTECS |
| 0.54 pM | 3.8e-06 s⁻¹ | 7e+06 M⁻¹ s⁻¹ | 5.5 pM | 5.5e-05 s⁻¹ | 1e+07 M⁻¹ s⁻¹ | 10 pM | 1.9e-05 s⁻¹ | 1.9e+06 M⁻¹ s⁻¹ | 0.24 pM | 1.6e-06 s⁻¹ | 6.9e+06 M⁻¹ s⁻¹ | AE10-6-AM3 (antibody, V domains shown, converted into IgG) VH: EVQLVQSGAEVKKPGASVKVSCKVSGYTLTELSMHWVRQAPGKGLEWMGGFDPEDGETIYAQKFQGRVTMTEDTSTDTAYMELSSLRSEDTAVYYCATDSAGYWYKFFQHWGQGTLVTVSS VL: QAVVTQEPSLTVSPGGTVTLTCGSSTGAVTIDHYPYWFQQKPGQAPRTLISDTDDKHSWTPARFSGSLLGGKAALTLSGAQPEDEAEYYCLLDYGGTFVFGGGTKLTVL |
| 1.3 pM | 1.2e-05 s⁻¹ | 9.1e+06 M⁻¹ s⁻¹ | 27 pM | 0.00087 s⁻¹ | 3.2e+07 M⁻¹ s⁻¹ | 98 pM | 0.00018 s⁻¹ | 1.9e+06 M⁻¹ s⁻¹ | 0.88 pM | 7e-06 s⁻¹ | 7.9e+06 M⁻¹ s⁻¹ | AE10-6-AM6 (antibody, V domains shown, converted into IgG; also called rHC + LC S4 clone 119) VH: EVQLVQSGAEVKKPGASVKVSCKVSGYTLSELSMHWVRQAPGKGLEWMGGFDPEGGETIYAQKFQGRVTMTEDTSTDTAYMELSSLRSEDTAVYYCATDTEGYWEKFFQHWGQGTLVTVSS VL: QAVVTQEPSLTVSPGGTVTLTCGSSTGAVTIDHYPYWFQQKPGQAPRTLISDTDDKHSWTPARFSGSLLGGKAALTLSGAQPEDEAEYYCLLDYGGTFVFGGGTKLTVL |
| 8.1 pM | 2.7e-05 s⁻¹ | 3.4e+06 M⁻¹ s⁻¹ | 94 pM | 0.002 s⁻¹ | 2.1e+07 M⁻¹ s⁻¹ | 120 pM | 0.00088 s⁻¹ | 7.6e+06 M⁻¹ s⁻¹ | 7.1 pM | 2.6e-05 s⁻¹ | 3.6e+06 M⁻¹ s⁻¹ | AE10-6-AM2 (antibody, V domains shown, converted into IgG; also called rHC + LC S4 clone 102) VH: EVQLVQSGAEVKKPGASVKVSCKVSGYTLTELSMHWVRQAPGKGLEWMGGFDPEAGETIYAQKFQGRVTMTEDTSTDTAYMELSSLRSEDTAVYYCATDGELYWYKFFQHWGQGTLVTVSS VL: QAVVTQEPSLTVSPGGTVTLTCGSSTGAVTIWHYPYWFQQKPGQAPRTLISDTNDKHSWTPARFSGSLLGGKAALTLSGAQPEDEAEYYCLLDYGGSFVFGGGTKLTVL |
| 0.3 pM | 2.1e-06 s⁻¹ | 7.1e+06 M⁻¹ s⁻¹ | 9.3 pM | 0.00012 s⁻¹ | 1.3e+07 M⁻¹ s⁻¹ | 26 pM | 4.6e-05 s⁻¹ | 1.8e+06 M⁻¹ s⁻¹ | < 0.14 pM | < 1e-07 s⁻¹ | 7e+06 M⁻¹ s⁻¹ | AE10-6-AM7 (antibody, V domains shown, converted into IgG; also called rHC + LC S4 clone 131) VH: EVQLVQSGAEVKKPGASVKVSCKVSGYTLTELSMHWVRQAPGKGLEWMGGFDPEDGETIYAQKFQGRVTMTEDTSTDTAYMELSSLRSEDTAVYYCATDTVGYWEKFFQHWGQGTLVTVSS VL: QAVVTQEPSLTVSPGGTVTLTCGSSTGTVTIDHYPYWFQQKPGQAPRTLISDTDDKHSWTPARFSGSLLGGKAALTLSGAQPEDEAEYYCLLDYGGRFVFGGGTKLTVL |
| 3 pM | 1.3e-05 s⁻¹ | 4.3e+06 M⁻¹ s⁻¹ | 16 pM | 0.00011 s⁻¹ | 7e+06 M⁻¹ s⁻¹ | 56 pM | 7.5e-05 s⁻¹ | 1.3e+06 M⁻¹ s⁻¹ | 1.5 pM | 7.6e-06 s⁻¹ | 5.2e+06 M⁻¹ s⁻¹ | AE10-6-AM5 (antibody, V domains shown, converted into IgG) VH: EVQLVQSGAEVKKPGASVKVSCKVSGYTLSELSMHWVRQAPGKGLEWMGGFDPEGGETIYAQKFQGRVTMTEDTSTDTAYMELSSLRSEDTAVYYCATDAGGYWYKFFQHWGQGTLVTVSS VL: QAVVTQEPSLTVSPGGTVTLTCGSSTGTVTIDHYPYWFQQKPGQAPRTLISDTDDKHSWTPARFSGSLLGGKAALTLSGAQPEDEAEYYCLLFYGGTVVFGGGTKLTVL |
| < 3.7 pM | < 1e-06 s⁻¹ | 270000 M⁻¹ s⁻¹ | – | – | – | – | – | – | 61 pM | 3e-05 s⁻¹ | 500000 M⁻¹ s⁻¹ | DVD2658 (bispecific antibody, human IgG1, kappa, L234A L235A, DVD-Ig: outer MSL10-AM1.2, inner AB436) heavy: not shown light: QSVLTQPPSASGTPGQRVTISCSGSSSNIGRNTVNWYQQLPGTAPKLLIYSNNQRPSGVPDRFSGSKSGTSASLAISGLQSEDEADYYCAAWDDNLESYVFGGGTKLTVLGQPKAAPDIQMTQSPSSLSASVGDRVTITCRASQLVSSAVAWYQQKPGKAPKLLIYWASARHTGVPSRFSGSGSGTDFTLTISSLQPEDFATYYCQQHYKTPFTFGQGTKLEIKRTVAAPSVFIFPPSDEQLKSGTASVVCLLNNFYPREAKVQWKVDNALQSGNSQESVTEQDSKDSTYSLSSTLTLSKADYEKHKVYACEVTHQGLSSPVTKSFNRGEC |
| 17 pM | 4.9e-06 s⁻¹ | 280000 M⁻¹ s⁻¹ | – | – | – | – | – | – | 130 pM | 5e-05 s⁻¹ | 390000 M⁻¹ s⁻¹ | DVD2657 (bispecific antibody, human IgG1, kappa, L234A L235A, DVD-Ig: outer MSL10-AM1.2, inner AB436) heavy: not shown light: QSVLTQPPSASGTPGQRVTISCSGSSSNIGRNTVNWYQQLPGTAPKLLIYSNNQRPSGVPDRFSGSKSGTSASLAISGLQSEDEADYYCAAWDDNLESYVFGGGTKLTVLGGGSGGGGSGDIQMTQSPSSLSASVGDRVTITCRASQLVSSAVAWYQQKPGKAPKLLIYWASARHTGVPSRFSGSGSGTDFTLTISSLQPEDFATYYCQQHYKTPFTFGQGTKLEIKRTVAAPSVFIFPPSDEQLKSGTASVVCLLNNFYPREAKVQWKVDNALQSGNSQESVTEQDSKDSTYSLSSTLTLSKADYEKHKVYACEVTHQGLSSPVTKSFNRGEC |
